Test results: publication PMC6123721 (2018)

B1: 6D8 single-chain Fv (scFv) (scFv, V domains shown)
VH: QVQLQQSGDELVKPGASVKLSCTVSGFNIKDDFIHWMKQRPEQGLEWIGRIDPANGYTKYAPKFQDKATMTADTSSNTAYLQLSSLASEDAAVYYCATYGVAYWGQGTLVTVSA
VL: DIVLTQSPASLAVSLGQRATISCKASQSVDHDGDSYMNWFQQKPGQSPKLLIYAASNLESGIPARFSGSGSGTDFTLNIHPVEEEDAATYYCQQTNEDPYTFGGGTKLEIK

Assays:
Assay in all cases: ITC
FC27-MSP2 = biological target: FC27-MSP2
3D7-MSP2 = biological target: 3D7-MSP2
[1] = biological target: B1

Binder	Kd (FC27-MSP2) [nM]	Kd (3D7-MSP2) [nM]	Kd [1] [nM]
B1	13	61	–
NAYNMSIRRSMANEGSNTNSV [FC27 MSP2 14-34 peptide (C-terminally extended epitope, FC27 allele)]	–	–	16
NAYNMSIRR [MSP2 14-22 peptide (minimal 6D8 epitope of merozoite surface protein 2)]	–	–	6
NAYNMSIRRSMAESKPSTGAG [3D7 MSP2 14-34 peptide (C-terminally extended epitope, 3D7 allele)]	–	–	64
